Data: publication PMC6024848

Biological target: AcLys, putative Acinetobacter baumannii AB 5075 prophage endolysin (Acinetobacter baumannii AB 5075 (prophage region))
Assay: SEC; gel permeation (size-exclusion) chromatography of recombinant AcLys; Superose 12 HR10/30 in 50 mM Bis-Tris pH 6.0 named for the purification step; monomer and dimer fractions redistribute to the mixture 3-4 h after separation; more monomer in dilute solution; beta-mercaptoethanol does not affect dimerization; dimer to monomers

**Q.** “AcLys, putative Acinetobacter baumannii AB 5075 prophage endolysin (enzyme)” was tested. Which stoichiometry N did it give?
**A.** 2
